Test results reported in patent publication US9539225B2, “Anemia of cancer improving/prophylactic agent” (SBI Pharmaceuticals Co., Ltd., priority 2011, dated 2017).

System: person suffering from chronic lymphatic leukemia (cancerous anemia)
Text: The white blood cell count, the red blood cell count, the hemoglobin, and the blood platelet count before and after treatment are shown in Table 3 below.

For “Rituxan: anticancer drug used to treat chronic lymphatic leukemia”, the “White blood cell count” value (2010 Nov. 22, after one cycle of Rituxan begun Nov. 15, 2010, before ALA, 2010 Jan. 13 value 16.48) was 1560 µL⁻¹, the “Anemia as side effect, result in words” value (human, in vivo) was “anemia progressed as a side effect” and the Blood platelet count (human, in vivo) was 101000 µL⁻¹. For the same substance, the Hemoglobin (human, in vivo) was 9.20 g/dL and the “Red blood cell count” value (human, in vivo) was 2.8e+06 µL⁻¹.
